From patent publication US20100313308

B1: GST-UBP15 (protein)
chain: MLEPRGADIPILFLVLVVLPVVAYILLGKWSNISEKRVRANLLAQMAAEEALRAETVVNADRGVRFESVATENRAQRTRTKTVSAGGGAVRAEFDAGARETVAEQRSDSVTATCGVTVVAPVNNNELHVCARCFGPAKTRCSRCKSVRYCSGKCQIIHWRVAHKDECVPVESCSSSSERVSFEKDSVLYDHGMDSTMYSNNTTQAAKGKTSKSSVDFASLGISQNDITPQINTQGRKSVGKQHSSKANRESCRRDSATVFDSSDEAASAGGDNKTSHIKHKSRGNSYAAETNPRRHSVDSSAVQMNGQSFVSGMQESHKHENNLGVRSSFGCPNTQYPSNGTRTATLPRTGINKSGEQSCTETSKKGQVAAVSKTVRSKDTGISEESNGISSTMGIMKMMGLRNSTKHDDRYKNLKMLFPYEEFLKFFQCEVFDLSPRGLVNCGNSCYANAVLQSLTCTKPLVAYLLRRSHSRSCSGKDWCLMCELEQHVMMLRESGGPLSASRILSHMRSINCQIGDGSQEDAHEFLRLLVASMQSICLERLGGETKVDPRLQETTLVQHMFGGRLRSKVKCLRCDHESERYENIMDLTLEIYGWVESLQDALTQFTRPEDLDGENMYRCSRCAGYVRARKELSIHEAPNILTIVLKRFQEGRYGKINKCISFPEMLDMIPFMTRTGDVPPLYMLYAVIVHLDTLNASFSGHYISYVKDLRGNWYRIDDSEIHPVPMTQVMSEGAYMLFYMRSYPRPQRGEHNGKAPVHHSQPRNEMKEQRKPVNRFKPRADHKNTESSSSEWSLFTSSDEASFTTESTRDSFSTIDYTDVCHVVDSSSPFAIFNNVYHNVEPSPHNTVACRMFSGTKPETRYFVEQETNHNNTVVLDATPSLYPIPAPYPPHDYYDQSMYVNYETNPEFNNGQDQDRTYSYW
B2: GST-UBP15C447A (protein)
chain: MLEPRGADIPILFLVLVVLPVVAYILLGKWSNISEKRVRANLLAQMAAEEALRAETVVNADRGVRFESVATENRAQRTRTKTVSAGGGAVRAEFDAGARETVAEQRSDSVTATCGVTVVAPVNNNELHVCARCFGPAKTRCSRCKSVRYCSGKCQIIHWRVAHKDECVPVESCSSSSERVSFEKDSVLYDHGMDSTMYSNNTTQAAKGKTSKSSVDFASLGISQNDITPQINTQGRKSVGKQHSSKANRESCRRDSATVFDSSDEAASAGGDNKTSHIKHKSRGNSYAAETNPRRHSVDSSAVQMNGQSFVSGMQESHKHENNLGVRSSFGCPNTQYPSNGTRTATLPRTGINKSGEQSCTETSKKGQVAAVSKTVRSKDTGISEESNGISSTMGIMKMMGLRNSTKHDDRYKNLKMLFPYEEFLKFFQCEVFDLSPRGLVNCGNSAYANAVLQSLTCTKPLVAYLLRRSHSRSCSGKDWCLMCELEQHVMMLRESGGPLSASRILSHMRSINCQIGDGSQEDAHEFLRLLVASMQSICLERLGGETKVDPRLQETTLVQHMFGGRLRSKVKCLRCDHESERYENIMDLTLEIYGWVESLQDALTQFTRPEDLDGENMYRCSRCAGYVRARKELSIHEAPNILTIVLKRFQEGRYGKINKCISFPEMLDMIPFMTRTGDVPPLYMLYAVIVHLDTLNASFSGHYISYVKDLRGNWYRIDDSEIHPVPMTQVMSEGAYMLFYMRSYPRPQRGEHNGKAPVHHSQPRNEMKEQRKPVNRFKPRADHKNTESSSSEWSLFTSSDEASFTTESTRDSFSTIDYTDVCHVVDSSSPFAIFNNVYHNVEPSPHNTVACRMFSGTKPETRYFVEQETNHNNTVVLDATPSLYPIPAPYPPHDYYDQSMYVNYETNPEFNNGQDQDRTYSYW
B3: GST-UBP15C447S (protein)
chain: MLEPRGADIPILFLVLVVLPVVAYILLGKWSNISEKRVRANLLAQMAAEEALRAETVVNADRGVRFESVATENRAQRTRTKTVSAGGGAVRAEFDAGARETVAEQRSDSVTATCGVTVVAPVNNNELHVCARCFGPAKTRCSRCKSVRYCSGKCQIIHWRVAHKDECVPVESCSSSSERVSFEKDSVLYDHGMDSTMYSNNTTQAAKGKTSKSSVDFASLGISQNDITPQINTQGRKSVGKQHSSKANRESCRRDSATVFDSSDEAASAGGDNKTSHIKHKSRGNSYAAETNPRRHSVDSSAVQMNGQSFVSGMQESHKHENNLGVRSSFGCPNTQYPSNGTRTATLPRTGINKSGEQSCTETSKKGQVAAVSKTVRSKDTGISEESNGISSTMGIMKMMGLRNSTKHDDRYKNLKMLFPYEEFLKFFQCEVFDLSPRGLVNCGNSSYANAVLQSLTCTKPLVAYLLRRSHSRSCSGKDWCLMCELEQHVMMLRESGGPLSASRILSHMRSINCQIGDGSQEDAHEFLRLLVASMQSICLERLGGETKVDPRLQETTLVQHMFGGRLRSKVKCLRCDHESERYENIMDLTLEIYGWVESLQDALTQFTRPEDLDGENMYRCSRCAGYVRARKELSIHEAPNILTIVLKRFQEGRYGKINKCISFPEMLDMIPFMTRTGDVPPLYMLYAVIVHLDTLNASFSGHYISYVKDLRGNWYRIDDSEIHPVPMTQVMSEGAYMLFYMRSYPRPQRGEHNGKAPVHHSQPRNEMKEQRKPVNRFKPRADHKNTESSSSEWSLFTSSDEASFTTESTRDSFSTIDYTDVCHVVDSSSPFAIFNNVYHNVEPSPHNTVACRMFSGTKPETRYFVEQETNHNNTVVLDATPSLYPIPAPYPPHDYYDQSMYVNYETNPEFNNGQDQDRTYSYW

Assays:
[1] = molecular target: his-tagged polyubiquitin UBQ10 (hexameric polyubiquitin), Q8H159
[2] = molecular target: his-tagged ubiquitin-extension protein UBQ1
[3] = molecular target: multiubiquitin chain linked by iso-peptide

Sequence of his-tagged polyubiquitin UBQ10 (hexameric polyubiquitin), Q8H159 (Q8H159 whole entry, looked up): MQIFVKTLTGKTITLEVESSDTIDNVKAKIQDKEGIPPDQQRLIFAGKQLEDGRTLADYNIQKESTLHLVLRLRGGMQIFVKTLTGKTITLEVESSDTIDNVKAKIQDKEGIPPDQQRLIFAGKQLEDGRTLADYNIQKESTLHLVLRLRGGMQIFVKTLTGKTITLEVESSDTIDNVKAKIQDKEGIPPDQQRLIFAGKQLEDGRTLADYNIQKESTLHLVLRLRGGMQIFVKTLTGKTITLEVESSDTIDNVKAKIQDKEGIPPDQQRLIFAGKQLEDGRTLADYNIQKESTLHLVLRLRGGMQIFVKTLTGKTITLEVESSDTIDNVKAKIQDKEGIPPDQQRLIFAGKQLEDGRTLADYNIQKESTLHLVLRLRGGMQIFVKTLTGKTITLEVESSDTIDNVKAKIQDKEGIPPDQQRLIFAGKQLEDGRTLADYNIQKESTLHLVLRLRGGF

Protein | in vitro DUB activity assay (co-expression in E. coli, immunoblot with anti-ubiquitin antibody) [1] | in vitro DUB activity assay (co-expression in E. coli, immunoblot with anti-ubiquitin antibody) [2] | in vitro DUB activity assay (data not shown) [3]
B1 | UBP15 can cleave substrate UBQ10 (hexameric polyubiquitin) | UBP15 can cleave substrate UBQ1 (ubiquitin-extension protein) | UBP15 can only cleave a-linked peptide (polyubiquitin and ubiquitin-extension gene) (FIG. 5A), not c-linked isopeptide (multiubiquitin chain linked by iso-peptide) (data not shown)
B2 | Cysteine^447 is essential for this DUB activity | Cysteine^447 is essential for this DUB activity | –
B3 | Cysteine^447 is essential for this DUB activity | Cysteine^447 is essential for this DUB activity | –
